Results published in paper PMC10027727, “Structure and dynamics of the Arabidopsis O-fucosyltransferase SPINDLY” (Nature Communications, 2023).

T1: Myc-spy Δ216 (deletion of residues 1-216, the N-terminal peptide and TPRs 1-5) (Arabidopsis thaliana, UniProt Q96301 217-914)
T1 construct: source: N. benthamiana, transient expression by agroinfiltration, in protein extract
T1 sequence (looked up): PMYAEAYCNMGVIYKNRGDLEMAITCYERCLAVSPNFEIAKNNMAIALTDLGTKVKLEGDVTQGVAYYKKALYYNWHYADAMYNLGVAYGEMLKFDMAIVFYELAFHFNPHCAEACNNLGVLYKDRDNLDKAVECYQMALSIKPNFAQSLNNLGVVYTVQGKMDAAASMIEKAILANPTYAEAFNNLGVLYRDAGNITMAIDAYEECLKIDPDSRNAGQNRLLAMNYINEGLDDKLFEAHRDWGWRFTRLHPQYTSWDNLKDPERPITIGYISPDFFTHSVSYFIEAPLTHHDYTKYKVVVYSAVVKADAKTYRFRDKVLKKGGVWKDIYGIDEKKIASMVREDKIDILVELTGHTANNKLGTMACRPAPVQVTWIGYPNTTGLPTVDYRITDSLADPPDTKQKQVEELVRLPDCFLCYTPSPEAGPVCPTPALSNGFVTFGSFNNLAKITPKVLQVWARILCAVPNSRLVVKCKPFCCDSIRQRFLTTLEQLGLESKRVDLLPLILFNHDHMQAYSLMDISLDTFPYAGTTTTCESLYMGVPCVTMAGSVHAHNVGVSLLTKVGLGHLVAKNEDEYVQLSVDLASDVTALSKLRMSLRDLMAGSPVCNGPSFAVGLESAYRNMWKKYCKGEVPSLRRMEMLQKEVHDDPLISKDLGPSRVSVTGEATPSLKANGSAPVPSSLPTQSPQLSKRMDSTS

B1: FLAG-RGA (35S:FLAG-RGA, pEG100-3xFR; contains a 6xHis-3xFLAG tag) (natural protein, Arabidopsis, UniProt Q9SLH3 1-587, looked up)
chain: MKRDHHQFQGRLSNHGTSSSSSSISKDKMMMVKKEEDGGGNMDDELLAVLGYKVRSSEMAEVALKLEQLETMMSNVQEDGLSHLATDTVHYNPSELYSWLDNMLSELNPPPLPASSNGLDPVLPSPEICGFPASDYDLKVIPGNAIYQFPAIDSSSSSNNQNKRLKSCSSPDSMVTSTSTGTQIGGVIGTTVTTTTTTTTAAGESTRSVILVDSQENGVRLVHALMACAEAIQQNNLTLAEALVKQIGCLAVSQAGAMRKVATYFAEALARRIYRLSPPQNQIDHCLSDTLQMHFYETCPYLKFAHFTANQAILEAFEGKKRVHVIDFSMNQGLQWPALMQALALREGGPPTFRLTGIGPPAPDNSDHLHEVGCKLAQLAEAIHVEFEYRGFVANSLADLDASMLELRPSDTEAVAVNSVFELHKLLGRPGGIEKVLGVVKQIKPVIFTVVEQESNHNGPVFLDRFTESLHYYSTLFDSLEGVPNSQDKVMSEVYLGKQICNLVACEGPDRVERHETLSQWGNRFGSSGLAPAHLGSNAFKQASMLLSVFNSGQGYRVEESNGCLMLGWHTRPLITTSAWKLSTAAY
notes: RGA, an Arabidopsis DELLA protein; called the full-length RGA substrate in planta; RGA is O-fucosylated by the co-expressed SPY to differing degrees; also called His-FLAG-RGA; source: N. benthamiana, transient expression by agroinfiltration, in protein extract
B2: Recombinant full-length Arabidopsis thaliana SPINDLY (SPY-WT-TEV-His10-Strep) (enzyme, UniProt Q96301 1-914, looked up)
chain: MVGLEDDTERERSPVVENGFSNGSRSSSSSAGVLSPSRKVTQGNDTLSYANILRARNKFADALALYEAMLEKDSKNVEAHIGKGICLQTQNKGNLAFDCFSEAIRLDPHNACALTHCGILHKEEGRLVEAAESYQKALMADASYKPAAECLAIVLTDLGTSLKLAGNTQEGIQKYYEALKIDPHYAPAYYNLGVVYSEMMQYDNALSCYEKAALERPMYAEAYCNMGVIYKNRGDLEMAITCYERCLAVSPNFEIAKNNMAIALTDLGTKVKLEGDVTQGVAYYKKALYYNWHYADAMYNLGVAYGEMLKFDMAIVFYELAFHFNPHCAEACNNLGVLYKDRDNLDKAVECYQMALSIKPNFAQSLNNLGVVYTVQGKMDAAASMIEKAILANPTYAEAFNNLGVLYRDAGNITMAIDAYEECLKIDPDSRNAGQNRLLAMNYINEGLDDKLFEAHRDWGWRFTRLHPQYTSWDNLKDPERPITIGYISPDFFTHSVSYFIEAPLTHHDYTKYKVVVYSAVVKADAKTYRFRDKVLKKGGVWKDIYGIDEKKIASMVREDKIDILVELTGHTANNKLGTMACRPAPVQVTWIGYPNTTGLPTVDYRITDSLADPPDTKQKQVEELVRLPDCFLCYTPSPEAGPVCPTPALSNGFVTFGSFNNLAKITPKVLQVWARILCAVPNSRLVVKCKPFCCDSIRQRFLTTLEQLGLESKRVDLLPLILFNHDHMQAYSLMDISLDTFPYAGTTTTCESLYMGVPCVTMAGSVHAHNVGVSLLTKVGLGHLVAKNEDEYVQLSVDLASDVTALSKLRMSLRDLMAGSPVCNGPSFAVGLESAYRNMWKKYCKGEVPSLRRMEMLQKEVHDDPLISKDLGPSRVSVTGEATPSLKANGSAPVPSSLPTQSPQLSKRMDSTS
modifications: fully auto-O-fucosylated (sites not mapped for the insect-cell protein)
notes: SPINDLY (SPY), Arabidopsis thaliana, full length (101.4 kDa), UniProt Q96301; The tag end is read from the construct name SPY-WT-TEV-His10-Strep; A TEV site lies between SPY and the tags; no cleavage is described; also called WT SPY; apo SPY; source: Trichoplusia ni (High Five) insect cells, baculovirus, purified (Talon, Strep-Tactin, SEC)

Columns and labels:
[1] = target: T1, Myc-spy Δ216 (deletion of residues …); assay: co-IP; FLAG-RGA co-expressed with Myc-SPY, Myc-spy mutants or Myc-GUS in N. benthamiana; IP with anti-cMyc agarose, blots with αMyc and αFLAG; co-IP'ed FLAG-RGA normalised to the IP'ed Myc protein, WT SPY set as 1; settings: partners not purified
[2] = target: the molecule itself; assay: cryo-EM structure; apo SPY, ~0.8 mg/mL, 25 mM HEPES pH 7.5, 150 mM NaCl, 2 mM DTT; three conformations of the dimer at 3.6 to 3.9 Å
[3] = target: the molecule itself; assay: cryo-EM 2D class averages; apo SPY, flash-frozen solution; tetramer formed by side-by-side stacking of two SPY dimers

Row | Binder | fold change of co-IP'ed FLAG-RGA against WT SPY [1] | stoichiometry N [2] | stoichiometry N [3]
1 | B1 | 6.3 fold | – | –
2 | B2 | – | 2 | 4
